Columns and labels:
[1] = target: Pseudomonas phage LUZ24 small terminase subunit (TerS) (Pseudomonas phage LUZ24); assay: AUC; sedimentation velocity; TerS from heparin peak 2 (850 mM NaCl); 40 000 rpm, 6 °C; 20 mM Tris-HCl pH 7.5, 150 mM NaCl, 3 mM DTT, 2.5% glycerol; 1.3-2.2 mg/ml
[2] = target: Pseudomonas phage NV1 small terminase subunit (TerS) (Pseudomonas phage NV1); assay: crystal structure; TerS from heparin peak 2 at 7.5 mg/ml, vapor diffusion hanging drop; PaP3 at 3.0 Å, NV1 at 3.95 Å
[3] = target: Pseudomonas phage NV1 small terminase subunit (TerS) (Pseudomonas phage NV1); assay: AUC; sedimentation velocity; TerS from heparin peak 2 (850 mM NaCl); 40 000 rpm, 6 °C; 20 mM Tris-HCl pH 7.5, 150 mM NaCl, 3 mM DTT, 2.5% glycerol; 1.3-2.2 mg/ml
[4] = target: Pseudomonas phage NV1 small terminase subunit (TerS) (Pseudomonas phage NV1); assay: SEC-SAXS; TerS from heparin peak 2; PaP3 at 1.7 mg/ml, NV1 at 2.0 mg/ml; Superdex 200 10/300 GL; 20 mM Tris-HCl pH 8.0, 150 mM NaCl, 2.5% glycerol, 0.5 mM TCEP; 4 °C
[5] = target: Pseudomonas phage PaP3 small terminase subunit (TerS) (Pseudomonas phage PaP3); assay: crystal structure; TerS from heparin peak 2 at 7.5 mg/ml, vapor diffusion hanging drop; PaP3 at 3.0 Å, NV1 at 3.95 Å
[6] = target: Pseudomonas phage PaP3 small terminase subunit (TerS) (Pseudomonas phage PaP3); assay: AUC; sedimentation velocity; TerS from heparin peak 2 (850 mM NaCl); 40 000 rpm, 6 °C; 20 mM Tris-HCl pH 7.5, 150 mM NaCl, 3 mM DTT, 2.5% glycerol; 1.3-2.2 mg/ml
[7] = target: Pseudomonas phage PaP3 small terminase subunit (TerS) (Pseudomonas phage PaP3); assay: SEC-SAXS; TerS from heparin peak 2; PaP3 at 1.7 mg/ml, NV1 at 2.0 mg/ml; Superdex 200 10/300 GL; 20 mM Tris-HCl pH 8.0, 150 mM NaCl, 2.5% glycerol, 0.5 mM TCEP; 4 °C
[8] = target: T1, PaP3 TerS WT (small terminase, peak 2) (Pseudomonas phage PaP3, UniProt Q8H9R5 1-152); assay: EMSA; agarose gel, 0-40 uM TerS; EMSA: incubation 37 C 30 min (binding buffer not stated; proteins in GF buffer 20 mM Tris-HCl pH 7.5, 150 mM NaCl, 5 mM bME, 2.5% glycerol); 1% agarose or 4-16% acrylamide gel, 0.5x TBE, 4 C; conditions: protein: recombinant; tags: GST removed by PreScission protease; chain copies: 9; label: 5' Cy3 on both strands; blunt
T1 sequence: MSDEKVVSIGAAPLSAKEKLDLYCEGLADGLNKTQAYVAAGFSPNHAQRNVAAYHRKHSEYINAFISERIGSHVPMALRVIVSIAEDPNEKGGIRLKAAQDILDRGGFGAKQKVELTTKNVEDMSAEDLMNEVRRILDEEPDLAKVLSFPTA

Pseudomonas phage LUZ24 small terminase subunit (TerS) (natural protein)
stoichiometry N [1]: 9 mer

Pseudomonas phage NV1 small terminase subunit (TerS) (natural protein)
stoichiometry N [2]: 9 | stoichiometry N [3]: 9 mer | stoichiometry N [4]: 9

Pseudomonas phage PaP3 small terminase subunit (TerS) (natural protein)
stoichiometry N [5]: 9 | stoichiometry N [6]: 9 mer | stoichiometry N [7]: 9

B1: Cy3-cos (dsDNA)
DNA 1: GCCGGCCCCTTTCCGCGTTA
DNA 2: TAACGCGGAAAGGGGCCGGC
binding result [8]: binds

Source: PMC7672466, “Biophysical analysis of Pseudomonas-phage PaP3 small terminase suggests a mechanism for sequence-specific DNA-binding by lateral interdigitation”
